± gives the uncertainty stated by the source.

This data set is described as follows: amyloid nucleation score (Sup35N fusion, yeast selection) (log enrichment); library NNK3; higher = more nucleation; inactive = no reads after selection. The method, boiled down:
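The nucleation score equals the log enrichment of output over input reads from DiMSum, centred on the mode score of non-aggregating sequences. It was computed only for sequences with 100 or more input reads. The reads came from Illumina sequencing of plasmid inserts from psi-negative yeast expressing Sup35N fused to peptides of 20 random codons, induced with 100 μM copper sulfate for 24 hours and grown 7 days at 30°C without adenine and uracil.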
As to ELLWGPMGSNWKSLVVYFSH, the amyloid nucleation score result is “inactive”.
Substance ELSACCYAMSWMVDCVRASL returned an amyloid nucleation score of 1.34 ± 0.1.
As to ELSHQVCYSVGCACETSDGQ, the amyloid nucleation score entry was “inactive”.
Regarding ELVGIIDGCLKNMSSFTMRV, the amyloid nucleation score result is “inactive”.
Turning to EMDTCIQWLSRVLSGPDSFF, the amyloid nucleation score is -0.72 ± 0.8.
For EMEASRG, the amyloid nucleation score result is “inactive”.
For EMLCVDYWTFGYMVLREVTI, the amyloid nucleation score entry was “inactive”.
For the substance EMLGHHVGSLINRRVITVLR, the amyloid nucleation score entry was “inactive”.
With EMLSIENGRFTKCKLGECVR, the amyloid nucleation score was -0.137 ± 0.52.
The substance ENSSLFFLRDCELWWNVRTR showed an amyloid nucleation score of 1.59 ± 0.094.
As to EPITASYMRILNCACVAYCG, the amyloid nucleation score result is “inactive”.
Regarding EQVFRYIL, the amyloid nucleation score result is “inactive”.
In the case of ERDFLF, the amyloid nucleation score result was “inactive”.
For ERESKNLLQVAYSGYCIVWA the value was “inactive”; for ERFIKN, “inactive”.
For ERFRSLSGTVEEG the value was “inactive”.
The value for ERGGSTFCSTYFTVLKHRSG was “inactive”; that for ERLIPLPHISVIS was “inactive”.
In the case of ERNFPGLFIQLVHLQPEARM, the amyloid nucleation score turned out to be 0.631 ± 0.34.
For the substance ERRIKDLTECSNR, the amyloid nucleation score entry is “inactive”.
As for ESDAFKLCAYDLNIMNISRF, the amyloid nucleation score result is “inactive”.
As to ESFVGEGDRSWSGHGNFITV, the amyloid nucleation score entry was “inactive”.
Take ESGNS: the amyloid nucleation score result is “inactive”.
In the case of ESRKWAAEGPSFICTCLLSL, the amyloid nucleation score result is “inactive”.
For ESSLWYI, the amyloid nucleation score result was “inactive”.
The substance ESTGMPTALYSLAVTVRVDK showed an amyloid nucleation score of 0.016 ± 0.33.
For ESVGLISWFRVPIYSN, the amyloid nucleation score entry is “inactive”.
Regarding ESVRRMLLTLGAHWGSPIHF, the amyloid nucleation score entry is “inactive”.
For ESYTWL the value was “inactive”.
Substance ETAGMGTPSVRAHGLASGSV had an amyloid nucleation score of -0.672 ± 1.8.
For the substance ETLYSCQKGGQRQRKAG, the amyloid nucleation score entry was “inactive”.
ETNQSMY: the amyloid nucleation score amounted to 1.51 ± 0.075.
As for ETPSALCILYVFYCHAYWSH, the amyloid nucleation score entry is “inactive”.
With ETVGAPRSLYYST, the amyloid nucleation score result was “inactive”.
The value for ETWEIGRSKMGHRDCFCNYM was “inactive”; that for ETYWQINSTECKFTSFQRLF was “inactive”; that for EVCLGVSGRHGANSVVIDWT was “inactive”.
Turning to EVCWVSEWQLIVMRFSCTWL, the amyloid nucleation score result was “inactive”.
For EVGLRSLMFHSGQGIRMYNY the value was “inactive”; for EVHLSINEINLYVIEDEGSL, 0.013 ± 0.32.
Consider EVPLDVAVKGRLW, for which the amyloid nucleation score result is “inactive”.
For the substance EVPNFYNLPSWSA, the amyloid nucleation score entry is “inactive”.
Regarding EVRLLGYLVTRNDM, the amyloid nucleation score entry was “inactive”.
Consider EVYDLESGVSITYMCMCVVL, for which the amyloid nucleation score result was “inactive”.
For EVYMFFSCPSSNHVWDSRYV, the amyloid nucleation score entry was “inactive”.
For EWFEKIFIRLTGHRTKFYNS the value was “inactive”; for EWKWQSKHTITYFLHHCSEH, 0.534 ± 0.15.
Consider EYIAI, for which the amyloid nucleation score result is “inactive”.
As to EYQLYCVYHLYANLDTVVRT, the amyloid nucleation score result was “inactive”.
Consider FAIFGSWPKFFSCTP, for which the amyloid nucleation score was 0.378 ± 0.41.
On to FALNL, for which the amyloid nucleation score entry was “inactive”.
On to FALSVVQG, for which the amyloid nucleation score entry is “inactive”.
Turning to FANQPGVNYRFTPPSCCFLT, the amyloid nucleation score entry was “inactive”.
Turning to FARVRVNISFPISKSFCNIM, the amyloid nucleation score came to 2.34 ± 0.083.
In the case of FCALALTQMLINMAH, the amyloid nucleation score result is “inactive”.
FCCHYSKLFRR yielded an amyloid nucleation score of 0.641 ± 0.41.
Take FCDALMIVTEFGEGLWARWR: the amyloid nucleation score entry is “inactive”.
For FCEFDIDVVLCTHRLYCNRY the value was “inactive”; for FCEFWYLNSRKEATELRP, “inactive”.
FCEMHYRLDN registered an amyloid nucleation score of 0.424 ± 0.17.
Consider FCFSSVEKNWLQRVMFLRVS, for which the amyloid nucleation score entry was “inactive”.
As for FCLYTKLNVSIRGISDAYVY, the amyloid nucleation score result was “inactive”.
The substance FCRPNSWI registered an amyloid nucleation score of 0.53 ± 0.38.
On to FDFKAYESCCSLLRYLMDPW, for which the amyloid nucleation score entry was “inactive”.
In the case of FDIFQGDINLHFLDVNITR, the amyloid nucleation score was 0.397 ± 0.75.
Turning to FDLEMSSGFPTIELWMR, the amyloid nucleation score entry is “inactive”.
Take FDLWFIRIGV: the amyloid nucleation score is -0.221 ± 0.46.
Consider FDMFVLGMGCGILQYLICFK, for which the amyloid nucleation score entry is “inactive”.
For FDSDRCIMCLTHLWILWGLR the value was “inactive”.
For FDTYTLSNTF, the amyloid nucleation score result was “inactive”.
In the case of FDVFISENNDAGSHNVEMYQ, the amyloid nucleation score entry is “inactive”.
Regarding FECKLNRGWSKQARWLNKLY, the amyloid nucleation score is 0.177 ± 0.38.
Turning to FELRVV, the amyloid nucleation score result is “inactive”.
For FELSNVHGSLNRAKV, the amyloid nucleation score was -0.526 ± 0.8.
Turning to FELSYNWYNSNFVRRNVPFP, the amyloid nucleation score result was “inactive”.
With FERDVFDQYEVVQWGARGDG, the amyloid nucleation score entry was “inactive”.
For FETGCW the value was “inactive”.
With FEVWRTGLCDRARGTVNRLK, the amyloid nucleation score result was “inactive”.
Regarding FEYLLGKLCRLCSNAGRSLS, the amyloid nucleation score entry is “inactive”.
The value for FFEFSTSVVYN was “inactive”; that for FFFLLKMRHKPSASANLNSN was “inactive”.
For FFFRLDCRLYS, the amyloid nucleation score entry was “inactive”.
Consider FFFTATLNQLSYTYIFSKLA, for which the amyloid nucleation score result is “inactive”.
As for FFFYFLRFSDFNWFINWLIS, the amyloid nucleation score entry was “inactive”.
In the case of FFISDVGETC, the amyloid nucleation score result is “inactive”.
Regarding FFLAFKEQPRAYLISISTH, the amyloid nucleation score result is “inactive”.
For FFLNGVCDCLRIPCTNVYLY the value was “inactive”; for FFMEIKYGWKV, 0.898 ± 0.12.
The value for FFMPFRNLIHKLVTTEELYR was “inactive”.
As to FFNIDVHARVSI, the amyloid nucleation score result is “inactive”.
As for FFNKGCMFCSREAVIVQIWG, the amyloid nucleation score came to 2.62 ± 0.082.
As to FFSCGDKLSFF, the amyloid nucleation score result was “inactive”.
Take FFSIT: the amyloid nucleation score result is “inactive”.
The value for FFSVGIKLDVFVWFWGEGHL was “inactive”; that for FFWLMDAPHPRRHVDERQLI was “inactive”; that for FFWVMISGVFLRRIHDSRSA was “inactive”.
Regarding FFYNYSRSGLCYIIFSESPV, the amyloid nucleation score worked out at 1.33 ± 0.095.
As to FFYRVSVSLSRAKI, the amyloid nucleation score result was “inactive”.
Consider FGCCKRCRHNRVSKEFSWSC, for which the amyloid nucleation score result was “inactive”.
Consider FGICVDVGRAHIVKRSNRML, for which the amyloid nucleation score entry was “inactive”.
In turn, FGLITYFLL had an amyloid nucleation score of 1 ± 0.13.
For FGLVRTNRDILH, the amyloid nucleation score entry was “inactive”.
FGMVFHISIACKWTGFSMR: the amyloid nucleation score result is “inactive”.
The substance FGQDSPSVLTC gave an amyloid nucleation score of -0.381 ± 0.7.
As to FGRGCHRSMTIGDLVFLLIT, the amyloid nucleation score entry is “inactive”.
For FGRVT, the amyloid nucleation score result was “inactive”.
As for FGSLPRQIMCMPA, the amyloid nucleation score result is “inactive”.
For FGSVERFLLDPLTGHVGRFF the value was “inactive”; for FGTGDMCKQCRHDVVRHSCL, “inactive”; for FGTMSSGYAGGNKKFHPHRY, “inactive”.
Take FGWLYNLNVSDIGTGD: the amyloid nucleation score entry was “inactive”.
Take FHNAFAFLSHWGVMVRSFEG: the amyloid nucleation score result is “inactive”.
Regarding FHVEVVAGCIVGNFGGVCVI, the amyloid nucleation score was 0.5 ± 0.28.
The value for FICCMLIMKVNYDTRLISSM was “inactive”.
FICFFGYS: the amyloid nucleation score result was “inactive”.
Take FIGMDIIKYLS: the amyloid nucleation score came out at 0.631 ± 0.16.
In the case of FIITPTYIICQRLFY, the amyloid nucleation score result was “inactive”.
For FIMNARGVPLEGWWSDGSDK the value was “inactive”; for FIRFWASVSTNCRLPFLLNR, “inactive”.
Consider FISPVL, for which the amyloid nucleation score entry is “inactive”.
Turning to FISRVMGSSR, the amyloid nucleation score entry was “inactive”.
As for FIVNSLPDLNALAHMSALLY, the amyloid nucleation score result is “inactive”.
With FIVSPPSNGANVY, the amyloid nucleation score entry is “inactive”.
Consider FIVVVTYARWHSRYVSGWVS, for which the amyloid nucleation score entry is “inactive”.
The value for FIVYMSTHRA was 1.67 ± 0.11.
Consider FIYSFLSYHIWTFKPPVVVG, for which the amyloid nucleation score entry was “inactive”.
The value for FKDMFPNLSTCLLIVRM was “inactive”.
The value for FKFALPHSNIGFTISSRFGC was 0.478 ± 0.16.
FKGTTMIGRYINRVVMWAWS: the amyloid nucleation score result was “inactive”.
For FKSSVKGEGYGKMGFQLLPF, the amyloid nucleation score entry is “inactive”.
For FKVNLDVP, the amyloid nucleation score is -0.263 ± 1.4.
For the substance FLANPWCIVARLCSNHVIVH, the amyloid nucleation score entry was “inactive”.
Take FLAWYMTFMV: the amyloid nucleation score worked out at 0.036 ± 0.88.

For the origin of these results see the supplement of paper PMC12042874.
